From patent US20230227838A1, “ENHANCED CELL SURVIVAL AGAINST BIOTIC AND ABIOTIC STRESSES THROUGH SALICYLICK ACID-INDUCED NPR1 CONDENSATES” (priority 2020, published 2023)

B1: PCS1, phytochelatin synthase 1 (PCS1) (protein, UniProt Q9S7Z3 1-485, looked up)
Glutathione gamma-glutamylcysteinyltransferase 1: MAMASLYRRSLPSPPAIDFSSAEGKLIFNEALQKGTMEGFFRLISYFQTQSEPAYCGLASLSVVLNALSIDPGRKWKGPWRWFDESMLDCCEPLEVVKEKGISFGKVVCLAHCSGAKVEAFRTSQSTIDDFRKFVVKCTSSENCHMISTYHRGVFKQTGTGHFSPIGGYNAERDMALILDVARFKYPPHWVPLKLLWEAMDSIDQSTGKRRGFMLISRPHREPGLLYTLSCKDESWIEIAKYLKEDVPRLVSSQHVDSVEKIISVVFKSLPSNFNQFIRWVAEIRITEDSNQNLSAEEKSRLKLKQLVLKEVHETELFKHINKFLSTVGYEDSLTYAAAKACCQGAEILSGSPSKEFCCRETCVKCIKGPDDSEGTVVTGVVVRDGNEQKVDLLVPSTQTECECGPEATYPAGNDVFTALLLALPPQTWSGIKDQALMHEMKQLISMASLPTLLQEEVLHLRRQLQLLKRCQENKEEDDLAAPAY
B2: FPA, RNA binding (protein, UniProt Q8LPQ9 1-901, looked up)
Flowering time control protein FPA: MALSMKPFRADDSGFQSNNLWVGSLTPETTESDLTELFGRYGDIDRITVYSSRGFAFIYYRHVEEAVAAKEALQGANLNGSQIKIEYARPAKPCKSLWVGGIGPNVSKDDLEEEFSKFGKIEDFRFLRERKTAFIDYYEMDDALQAKSMNGKPMGGSFLRVDFLRSQAPKKEQWAGSYDNRNGNMNHKPQYPHSYEDFKGDVQPSKVLWIGFPPTATQCNDEQILHNAMILFGEIERVKSYPSRNFALVEFRSAEEARQCKEGLQGRLFNNPRIKIMYSNDELPPEQDDTSFYSGMKRSRTDMFNNDPSFVSSPHSTGIPGSMRPLRGTNERSYNGAEYNDVVGKEPNWRRPSANGTGILPSPTGPGILPSPAQGTRRPMRSNPDSWEGYDPAQLVRESKRTRRDGSVDGFTPMGVDERSFGRGSVAARPIRGPPDSDHIWRGMIAKGGTPVCCARCVPMGKGIETKLPEVVNCSARTDLNMLAKHYAVAIGCEIVFFVPDREEDFASYTEFLRYLSSKDRAGVAKLDDGTTLFLVPPSDFLTDVLQVTRQERLYGVVLKLPPPAVPVTASYRQESQSNPLHYMDQARDSPANASHSLYPPRENYIRGAPEHLTAASKPSVSEPLRIPNNAAPQAGVSLTPELLATLASILPATSQPAAPESHQPMSGPSTVVSTAHQSNGLYNGEAPSQAWKRGPQTVHDASNQSFQQYGNQYTPAGQLPPPPSRYPPASNNPNYTSGMVHGNMQYQSQSVNMPQLSPLPNMPHNNYSMYTQGSSNHPVSQPMVQQYQPEASMPNQNYGPIPSYQQANFHGVTTNQAQNLNPSQFQAAMQPPADKANLEPQNQALRLQPMISGDGQGTTDGEVDKNQRYQSTLQFAANLLLQIQQKQQQQSSGTPAGQGP
B3: GPX8, glutathione peroxidase 8 (protein, UniProt Q8LBU2 1-167, looked up)
Probable glutathione peroxidase 8: MATKEPESVYELSIEDAKGNNLALSQYKDKVLLIVNVASKCGMTNSNYTELNELYNRYKDKGLEILAFPCNQFGDEEPGTNDQITDFVCTRFKSEFPIFNKIEVNGENASPLYKFLKKGKWGIFGDDIQWNFAKFLVDKNGQAVQRYYPTTSPLTLEHDIKNLLNIS
B4: ELI3-2, elicitor-activated gene 3-2 (protein, UniProt Q02972 1-359, looked up)
Cinnamyl alcohol dehydrogenase 8: MGKVLQKEAFGLAAKDNSGVLSPFSFTRRETGEKDVRFKVLFCGICHSDLHMVKNEWGMSTYPLVPGHEIVGVVTEVGAKVTKFKTGEKVGVGCLVSSCGSCDSCTEGMENYCPKSIQTYGFPYYDNTITYGGYSDHMVCEEGFVIRIPDNLPLDAAAPLLCAGITVYSPMKYHGLDKPGMHIGVVGLGGLGHVGVKFAKAMGTKVTVISTSEKKRDEAINRLGADAFLVSRDPKQIKDAMGTMDGIIDTVSATHSLLPLLGLLKHKGKLVMVGAPEKPLELPVMPLIFERKMVMGSMIGGIKETQEMIDMAGKHNITADIELISADYVNTAMERLEKADVRYRFVIDVANTLKPNPNL
B5: UGT73B2, UDP-glucosyltransferase 73B2 (protein, UniProt Q94C57 1-483, looked up)
UDP-glucosyl transferase 73B2: MGSDHHHRKLHVMFFPFMAYGHMIPTLDMAKLFSSRGAKSTILTTSLNSKILQKPIDTFKNLNPGLEIDIQIFNFPCVELGLPEGCENVDFFTSNNNDDKNEMIVKFFFSTRFFKDQLEKLLGTTRPDCLIADMFFPWATEAAGKFNVPRLVFHGTGYFSLCAGYCIGVHKPQKRVASSSEPFVIPELPGNIVITEEQIIDGDGESDMGKFMTEVRESEVKSSGVVLNSFYELEHDYADFYKSCVQKRAWHIGPLSVYNRGFEEKAERGKKANIDEAECLKWLDSKKPNSVIYVSFGSVAFFKNEQLFEIAAGLEASGTSFIWVVRKTKDDREEWLPEGFEERVKGKGMIIRGWAPQVLILDHQATGGFVTHCGWNSLLEGVAAGLPMVTWPVGAEQFYNEKLVTQVLRTGVSVGASKHMKVMMGDFISREKVDKAVREVLAGEAAEERRRRAKKLAAMAKAAVEEGGSSFNDLNSFMEEFSS
B6: RH39 (protein, UniProt Q56X76 1-621, looked up)
DEAD-box ATP-dependent RNA helicase 39: MVGASRTILSLSLSSSLFTFSKIPHVFPFLRLHKPRFHHAFRPLYSAAATTSSPTTETNVTDPDQLKHTILLERLRLRHLKESAKPPQQRPSSVVGVEEESSIRKKSKKLVENFQELGLSEEVMGALQELNIEVPTEIQCIGIPAVMERKSVVLGSHTGSGKTLAYLLPIVQLMREDEANLGKKTKPRRPRTVVLCPTRELSEQVYRVAKSISHHARFRSILVSGGSRIRPQEDSLNNAIDMVVGTPGRILQHIEEGNMVYGDIAYLVLDEADTMFDRGFGPEIRKFLAPLNQRALKTNDQGFQTVLVTATMTMAVQKLVDEEFQGIEHLRTSTLHKKIANARHDFIKLSGGEDKLEALLQVLEPSLAKGSKVMVFCNTLNSSRAVDHYLSENQISTVNYHGEVPAEQRVENLKKFKDEEGDCPTLVCTDLAARGLDLDVDHVVMFDFPKNSIDYLHRTGRTARMGAKGKVTSLVSRKDQMLAARIEEAMRNNESLESLTTDNVRRDAARTHITQEKGRSVKQIREVSKQRNSRDKPSSSSPPARSTGGKTPVRKSSSSSFSKPRKASSPPEKSSKPKRKILKTVGSRSIAARGKTGSDRRPGKKLSVVGFRGKSSSARAS
B7: ALDH7B4, aldehyde dehydrogenase 7B4 (protein, UniProt Q9SYG7 1-508, looked up)
Aldehyde dehydrogenase family 7 member B4: MGSANNEYEFLSEIGLTSHNLGSYVAGKWQANGPLVSTLNPANNQPIAQVVEASLEDYEQGLKACEEAAKIWMQVTAPKRGDIVRQIGDALRSKLDYLGRLLSLEMGKILAEGIGEVQEVIDMCDFAVGLSRQLNGSVIPSERPNHMMLEMWNPLGIVGVITAFNFPCAVLGWNACIALVCGNCVVWKGAPTTPLITIAMTKLVAEVLEKNNLPGAIFTAMCGGAEIGEAIAKDTRIPLVSFTGSSRVGSMVQQTVNARSGKTLLELSGNNAIIVMDDADIQLAARSVLFAAVGTAGQRCTTCRRLLLHESVYDKVLEQLLTSYKQVKIGNPLEKGTLLGPLHTPESKKNFEKGIEVIKSQGGKILTGGKAVEGEGNFVEPTIIEISADAAVVKEELFAPVLYVLKFKSFGEAVAINNSVPQGLSSSIFTRNPENIFRWIGPLGSDCGIVNVNIPTNGAEIGGAFGGEKATGGGREAGSDSWKQYMRRSTCTINYGNELPLAQGINFG
B8: UBC36, ubiquitin-conjugating enzyme 36 (protein, UniProt Q9FZ48 1-153, looked up)
Ubiquitin-conjugating enzyme E2 36: MANSNLPRRIIKETQRLLSEPAPGISASPSEENMRYFNVMILGPTQSPYEGGVFKLELFLPEEYPMAAPKVRFLTKIYHPNIDKLGRICLDILKDKWSPALQIRTVLLSIQALLSAPNPDDPLSENIAKHWKSNEAEAVETAKEWTRLYASGA
B9: ADL3, CF1, DL3, DRP2B, dynamin-like 3 (protein, UniProt Q9LQ55 1-920, looked up)
Dynamin-2B: MEAIDELSQLSDSMRQAASLLADEDPDETSSSRRPATSLNVVALGNVGAGKSAVLNSLIGHPVLPTGENGATRAPIIIDLSREESLSSKAIILQIDNKNQQVSASALRHSLQDRLSKGASGRGRDEIYLKLRTSTAPPLKLIDLPGLDQRIVDDSMIGEHAQHNDAILLVVVPASQASEISSSRALKIAKEYDPESTRTVGIISKIDQAAENPKSLAAVQALLSNQGPPKTTDIPWVALIGQSVSIASAQSGGSENSLETAWRAESESLKSILTGAPQSKLGRIALVDTLASQIRSRMKLRLPNILTGLQGKSQIVQDELARLGEQLVSSAEGTRAIALELCREFEDKFLLHLAGGEGSGWKVVASFEGNFPNRIKKLPLDRHFDLNNVKRIVLEADGYQPYLISPEKGLRSLIKTVLELAKDPARLCVDEVHRVLVDIVSASANATPGLGRYPPFKREVVAIASAALDGFKNEAKKMVVALVDMERAFVPPQHFIRLVQRRMERQRREEELKGRSSKKGQDAEQSLLNRATSPQPDGPSSTGGSLKSLRDKLMPQDKDKDKEKETPEVSGLKTAGPEGEITAGYLMKKSAKTNGWSRRWFVLNEKTGKLGYTKKQEERNFRGTVTLEECSIEEISDDEGEKSKSSKDKKSNGPDSKGPGLVFKITCRVPYKTVLKAHNALVLKAESMVDKNEWINKLQKVIQARGGQVGSASMRQSLSEGSLDKMVRKPVDPEEELRWMSQEVRGYVEAVLNSLAANVPKAVVLCQVEKSKEDMLNQLYSSISAIGNERIESLIQEDQNVKRRRDRYQKQSSLLSKLTRQLSIHDNRAAAASSWSDNSGTESSPRTNGGSSGEDWMNAFNAAASGPDSLKRYGSGGHSRRYSDPAQNGEDSSGSGGSSRRTTPNRLPPAPPQSGSSYRY
B10: GRF6, G-box regulating factor 6 (protein, UniProt P48349 1-248, looked up)
14-3-3-like protein G-BOX factor 14 lambda: MAATLGRDQYVYMAKLAEQAERYEEMVQFMEQLVTGATPAEELTVEERNLLSVAYKNVIGSLRAAWRIVSSIEQKEESRKNDEHVSLVKDYRSKVESELSSVCSGILKLLDSHLIPSAGASESKVFYLKMKGDYHRYMAEFKSGDERKTAAEDTMLAYKAAQDIAAADMAPTHPIRLGLALNFSVFYYEILNSSDKACNMAKQAFEEAIAELDTLGEESYKDSTLIMQLLRDNLTLWTSDMQEQMDEA
B11: PDIL2-2, PDI-like 2-2 (protein, UniProt Q9MAU6 27-447, looked up)
Protein disulfide-isomerase like 2-2: LYGSSSPVLQLTPSNFKSKVLNSNGVVLVEFFAPWCGHCQSLTPTWEKVASTLKGIATVAAIDADAHKSVSQDYGVRGFPTIKVFVPGKPPIDYQGARDAKSISQFAIKQIKALLKDRLDGKTSGTKNGGGSSEKKKSEPSASVELNSSNFDELVTESKELWIVEFFAPWCGHCKKLAPEWKKAANNLKGKVKLGHVNCDAEQSIKSRFKVQGFPTILVFGSDKSSPVPYEGARSASAIESFALEQLESNAGPAEVTELTGPDVMEDKCGSAAICFVSFLPDILDSKAEGRNKYLEMLLSVADKFKKDPYGFVWVAAGKQPDLEKRVGVGGYGYPAMVALNAKKGAYAPLKSGFEVKHLKDFVKEAAKGGKGNLPIDGTMEIVKTEAWDGKDGEVVDADEFSLEDLMGNDDEASTESKDDL
B12: DMR6, 2-oxoglutarate (2OG) and Fe(II)-dependent oxygenase superfamily protein (protein, UniProt Q9FLV0 1-341, looked up)
Protein DOWNY MILDEW RESISTANCE 6: MAAKLISTGFRHTTLPENYVRPISDRPRLSEVSQLEDFPLIDLSSTDRSFLIQQIHQACARFGFFQVINHGVNKQIIDEMVSVAREFFSMSMEEKMKLYSDDPTKTTRLSTSFNVKKEEVNNWRDYLRLHCYPIHKYVNEWPSNPPSFKEIVSKYSREVREVGFKIEELISESLGLEKDYMKKVLGEQGQHMAVNYYPPCPEPELTYGLPAHTDPNALTILLQDTTVCGLQILIDGQWFAVNPHPDAFVINIGDQLQALSNGVYKSVWHRAVTNTENPRLSVASFLCPADCAVMSPAKPLWEAEDDETKPVYKDFTYAEYYKKFWSRNLDQEHCLENFLNN

Each binder was assayed against sim3-GFP (Arabidopsis thaliana) (UniProt P93002) (assay: sim3-GFP IP, LC-MS/MS).
sim3-GFP (Arabidopsis thaliana), sequence (P93002 other isoform, or with tags, fused parts or gaps): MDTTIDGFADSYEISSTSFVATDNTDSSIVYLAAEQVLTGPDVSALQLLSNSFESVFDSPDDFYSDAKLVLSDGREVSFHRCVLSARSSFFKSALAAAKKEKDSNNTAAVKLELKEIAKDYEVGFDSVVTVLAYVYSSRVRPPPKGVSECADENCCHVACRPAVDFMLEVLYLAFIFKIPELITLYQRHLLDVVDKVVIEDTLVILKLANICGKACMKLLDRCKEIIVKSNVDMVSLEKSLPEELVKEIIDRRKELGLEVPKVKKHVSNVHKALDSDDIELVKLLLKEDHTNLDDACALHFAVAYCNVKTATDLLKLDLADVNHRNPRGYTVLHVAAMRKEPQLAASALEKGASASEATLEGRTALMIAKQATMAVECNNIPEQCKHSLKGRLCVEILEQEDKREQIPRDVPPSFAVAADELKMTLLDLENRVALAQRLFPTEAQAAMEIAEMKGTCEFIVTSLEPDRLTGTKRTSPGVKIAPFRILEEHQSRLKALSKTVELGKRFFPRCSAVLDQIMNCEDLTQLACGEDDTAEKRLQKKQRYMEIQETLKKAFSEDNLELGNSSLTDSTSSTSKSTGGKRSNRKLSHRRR
For B1, the Normalized Fold Change: SA vs Mock was 3.43 fold. For B2, the Normalized Fold Change: SA vs Mock was 4.87 fold. With B3 the Normalized Fold Change: SA vs Mock was 19.6 fold. In the case of B4, the Normalized Fold Change: SA vs Mock is reported as 57 fold. B5 showed a Normalized Fold Change: SA vs Mock of 8.08 fold. B6 was tested, and the Normalized Fold Change: SA vs Mock was 46.9 fold. For B7, the Normalized Fold Change: SA vs Mock was 2.01 fold. For B8, the Normalized Fold Change: SA vs Mock was 3.95 fold. B9 was tested, and the Normalized Fold Change: SA vs Mock was 2.5 fold. Binder B10 has a Normalized Fold Change: SA vs Mock of 2.01 fold. B11 was tested, and the Normalized Fold Change: SA vs Mock was 2.2 fold. Work on B12 yielded a Normalized Fold Change: SA vs Mock of 15.6 fold.
